Data on one molecule can be found in article PMC11857385, “Parametric Cyclic Voltammetric Analysis of an Electrochemical Aptasensor for Staphylococcus aureus Iron-Regulated Surface Determinant Protein A Detection”.

The target of the series is T1, IsdA (iron-regulated surface determinant protein A) (Staphylococcus aureus, UniProt A6QG31 47-316).
T1 sequence: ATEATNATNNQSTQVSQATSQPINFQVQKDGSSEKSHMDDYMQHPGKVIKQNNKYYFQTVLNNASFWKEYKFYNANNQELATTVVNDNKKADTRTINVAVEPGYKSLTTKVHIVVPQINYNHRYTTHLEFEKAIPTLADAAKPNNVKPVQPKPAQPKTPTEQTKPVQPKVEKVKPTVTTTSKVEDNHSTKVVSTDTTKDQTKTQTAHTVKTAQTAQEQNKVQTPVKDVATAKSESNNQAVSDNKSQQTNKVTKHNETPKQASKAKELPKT
The experiment in a line: cyclic voltammetry and EIS; pH 7.5, 25 °C, 5 mM [Fe(CN)6]3-/4-, 0.1 M KCl; Aptamer (5 µM, 4 h) immobilized on SPCE/AuNPs, 2-MCE block; CV in 5 mM [Fe(CN)6]3-/4-, 0.1 M KCl, pH 7.5 (also 4.5, 10.5), 25 °C (also 4, 37 °C); zeta potential in water, room temperature. Conditions: label: FAM dye applied in imaging; 1 strand.

B1: anti-IsdA aptamer (ssRNA)
RNA: GCGCACGCGUGUGUAGUACACACGAUCGCGCGCACAAUAU
modifications: amine for coupling to AuNP carboxyl groups implied; position not stated
Regarding B1, the binding result is “binds”.
